{"source": "IntAct's records for PubMed 29072299", "parents": {"B1": {"name": "Mothers against decapentaplegic homolog 4 (Mus musculus), P97471 (parent)", "chain": "MDNMSITNTPTSNDACLSIVHSLMCHRQGGESETFAKRAIESLVKKLKEKKDELDSLITAITTNGAHPSKCVTIQRTLDGRLQVAGRKGFPHVIYARLWRWPDLHKNELKHVKYCQYAFDLKCDSVCVNPYHYERVVSPGIDLSGLTLQSNAPSMLVKDEYVHDFEGQPSLPTEGHSIQTIQHPPSNRASTETYSAPALLAPAESNATSTTNFPNIPVASTSQPASILAGSHSEGLLQIASGPQPGQQQNGFTAQPATYHHNSTTTWTGSRTAPYTPNLPHHQNGHLQHHPPMPPHPGHYWPVHNELAFQPPISNHPAPEYWCSIAYFEMDVQVGETFKVPSSCPVVTVDGYVDPSGGDRFCLGQLSNVHRTEAIERARLHIGKGVQLECKGEGDVWVRCLSDHAVFVQSYYLDREAGRAPGDAVHKIYPSAYIKVFDLRQCHRQMQQQAATAQAAAAAQAAAVAGNIPGPGSVGGIAPAISLSAAAGIGVDDLRRLCILRMSFVKGWGPDYPRQSIKETPCWIEIHLHRALQLLDEVLHTMPIADPQPLD", "partner": "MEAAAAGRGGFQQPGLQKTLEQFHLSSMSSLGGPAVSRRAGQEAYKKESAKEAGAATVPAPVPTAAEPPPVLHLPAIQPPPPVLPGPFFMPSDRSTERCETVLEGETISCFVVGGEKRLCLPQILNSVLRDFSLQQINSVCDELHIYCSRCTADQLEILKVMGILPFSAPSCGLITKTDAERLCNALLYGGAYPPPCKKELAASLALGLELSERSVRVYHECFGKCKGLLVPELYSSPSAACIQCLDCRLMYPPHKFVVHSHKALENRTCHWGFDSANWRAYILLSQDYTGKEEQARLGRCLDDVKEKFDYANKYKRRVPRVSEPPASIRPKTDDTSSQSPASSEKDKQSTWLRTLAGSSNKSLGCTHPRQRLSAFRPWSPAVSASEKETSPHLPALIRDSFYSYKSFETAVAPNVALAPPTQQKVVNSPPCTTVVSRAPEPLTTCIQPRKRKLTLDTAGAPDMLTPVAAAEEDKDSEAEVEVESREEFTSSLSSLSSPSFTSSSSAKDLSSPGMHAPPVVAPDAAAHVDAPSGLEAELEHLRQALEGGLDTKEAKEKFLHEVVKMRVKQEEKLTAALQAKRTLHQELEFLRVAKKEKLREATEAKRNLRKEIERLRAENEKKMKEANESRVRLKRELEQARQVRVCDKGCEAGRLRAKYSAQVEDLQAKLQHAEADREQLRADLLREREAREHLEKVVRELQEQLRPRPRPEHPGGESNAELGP"}}, "data": [{"variants_of": "B1", "details": "with ski_mouse Ski", "values": [{"variant": "Y429A", "effect of a mutation on the interaction": "disrupting interaction strength"}, {"variant": "A432E", "effect of a mutation on the interaction": "disrupting interaction strength"}]}]}
